B1: NFX1 (protein, UniProt Q12986 1-1120, looked up)
Transcriptional repressor …: MAEAPPVSGTFKFNTDAAEFIPQEKKNSGLNCGTQRRLDSNRIGRRNYSSPPPCHLSRQVPYDEISAVHQHSYHPSGSKPKSQQTSFQSSPCNKSPKSHGLQNQPWQKLRNEKHHIRVKKAQSLAEQTSDTAGLESSTRSESGTDLREHSPSESEKEVVGADPRGAKPKKATQFVYSYGRGPKVKGKLKCEWSNRTTPKPEDAGPESTKPVGVFHPDSSEASSRKGVLDGYGARRNEQRRYPQKRPPWEVEGARPRPGRNPPKQEGHRHTNAGHRNNMGPIPKDDLNERPAKSTCDSENLAVINKSSRRVDQEKCTVRRQDPQVVSPFSRGKQNHVLKNVETHTGSLIEQLTTEKYECMVCCELVRVTAPVWSCQSCYHVFHLNCIKKWARSPASQADGQSGWRCPACQNVSAHVPNTYTCFCGKVKNPEWSRNEIPHSCGEVCRKKQPGQDCPHSCNLLCHPGPCPPCPAFMTKTCECGRTRHTVRCGQAVSVHCSNPCENILNCGQHQCAELCHGGQCQPCQIILNQVCYCGSTSRDVLCGTDVGKSDGFGDFSCLKICGKDLKCGNHTCSQVCHPQPCQQCPRLPQLVRCCPCGQTPLSQLLELGSSSRKTCMDPVPSCGKVCGKPLPCGSLDFIHTCEKLCHEGDCGPCSRTSVISCRCSFRTKELPCTSLKSEDATFMCDKRCNKKRLCGRHKCNEICCVDKEHKCPLICGRKLRCGLHRCEEPCHRGNCQTCWQASFDELTCHCGASVIYPPVPCGTRPPECTQTCARVHECDHPVYHSCHSEEKCPPCTFLTQKWCMGKHEFRSNIPCHLVDISCGLPCSATLPCGMHKCQRLCHKGECLVDEPCKQPCTTPRADCGHPCMAPCHTSSPCPVTACKAKVELQCECGRRKEMVICSEASSTYQRIAAISMASKITDMQLGGSVEISKLITKKEVHQARLECDEECSALERKKRLAEAFHISEDSDPFNIRSSGSKFSDSLKEDARKDLKFVSDVEKEMETLVEAVNKGKNSKKSHSFPPMNRDHRRIIHDLAQVYGLESVSYDSEPKRNVVVTAIRGKSVCPPTTLTGVLEREMQARPPPPIPHHRHQSDKNPGSSNLQKITKEPIIDYFDVQD
B2: FLOT1 (protein, UniProt O75955 1-427, looked up)
Flotillin-1: MFFTCGPNEAMVVSGFCRSPPVMVAGGRVFVLPCIQQIQRISLNTLTLNVKSEKVYTRHGVPISVTGIAQVKIQGQNKEMLAAACQMFLGKTEAEIAHIALETLEGHQRAIMAHMTVEEIYKDRQKFSEQVFKVASSDLVNMGISVVSYTLKDIHDDQDYLHSLGKARTAQVQKDARIGEAEAKRDAGIREAKAKQEKVSAQYLSEIEMAKAQRDYELKKAAYDIEVNTRRAQADLAYQLQVAKTKQQIEEQRVQVQVVERAQQVAVQEQEIARREKELEARVRKPAEAERYKLERLAEAEKSQLIMQAEAEAASVRMRGEAEAFAIGARARAEAEQMAKKAEAFQLYQEAAQLDMLLEKLPQVAEEISGPLTSANKITLVSSGSGTMGAAKVTGEVLDILTRLPESVERLTGVSISQVNHKPLRTA
B3: WBP11 (protein, UniProt Q9Y2W2 1-641, looked up)
WW domain-binding protein 11: MGRRSTSSTKSGKFMNPTDQARKEARKRELKKNKKQRMMVRAAVLKMKDPKQIIRDMEKLDEMEFNPVQQPQLNEKVLKDKRKKLRETFERILRLYEKENPDIYKELRKLEVEYEQKRAQLSQYFDAVKNAQHVEVESIPLPDMPHAPSNILIQDIPLPGAQPPSILKKTSAYGPPTRAVSILPLLGHGVPRLPPGRKPPGPPPGPPPPQVVQMYGRKVGFALDLPPRRRDEDMLYSPELAQRGHDDDVSSTSEDDGYPEDMDQDKHDDSTDDSDTDKSDGESDGDEFVHRDNGERDNNEEKKSGLSVRFADMPGKSRKKKKNMKELTPLQAMMLRMAGQEIPEEGREVEEFSEDDDEDDSDDSEAEKQSQKQHKEESHSDGTSTASSQQQAPPQSVPPSQIQAPPMPGPPPLGPPPAPPLRPPGPPTGLPPGPPPGAPPFLRPPGMPGLRGPLPRLLPPGPPPGRPPGPPPGPPPGLPPGPPPRGPPPRLPPPAPPGIPPPRPGMMRPPLVPPLGPAPPGLFPPAPLPNPGVLSAPPNLIQRPKADDTSAATIEKKATATISAKPQITNPKAEITRFVPTALRVRRENKGATAAPQRKSEDDSAVPLAKAAPKSGPSVPVSVQTKDDVYEAFMKEMEGLL
B4: ERC1 (protein, UniProt Q8IUD2 1-1116, looked up)
ELKS/Rab6-interacting/CAST …: MYGSARSVGKVEPSSQSPGRSPRLPRSPRLGHRRTNSTGGSSGSSVGGGSGKTLSMENIQSLNAAYATSGPMYLSDHENVGSETPKSTMTLGRSGGRLPYGVRMTAMGSSPNIASSGVASDTIAFGEHHLPPVSMASTVPHSLRQARDNTIMDLQTQLKEVLRENDLLRKDVEVKESKLSSSMNSIKTFWSPELKKERALRKDEASKITIWKEQYRVVQEENQHMQMTIQALQDELRIQRDLNQLFQQDSSSRTGEPCVAELTEENFQRLHAEHERQAKELFLLRKTLEEMELRIETQKQTLNARDESIKKLLEMLQSKGLSAKATEEDHERTRRLAEAEMHVHHLESLLEQKEKENSMLREEMHRRFENAPDSAKTKALQTVIEMKDSKISSMERGLRDLEEEIQMLKSNGALSTEEREEEMKQMEVYRSHSKFMKNKVEQLKEELSSKEAQWEELKKKAAGLQAEIGQVKQELSRKDTELLALQTKLETLTNQFSDSKQHIEVLKESLTAKEQRAAILQTEVDALRLRLEEKETMLNKKTKQIQDMAEEKGTQAGEIHDLKDMLDVKERKVNVLQKKIENLQEQLRDKEKQMSSLKERVKSLQADTTNTDTALTTLEEALAEKERTIERLKEQRDRDEREKQEEIDNYKKDLKDLKEKVSLLQGDLSEKEASLLDLKEHASSLASSGLKKDSRLKTLEIALEQKKEECLKMESQLKKAHEAALEARASPEMSDRIQHLEREITRYKDESSKAQAEVDRLLEILKEVENEKNDKDKKIAELERQVKDQNKKVANLKHKEQVEKKKSAQMLEEARRREDNLNDSSQQLQDSLRKKDDRIEELEEALRESVQITAEREMVLAQEESARTNAEKQVEELLMAMEKVKQELESMKAKLSSTQQSLAEKETHLTNLRAERRKHLEEVLEMKQEALLAAISEKDANIALLELSSSKKKTQEEVAALKREKDRLVQQLKQQTQNRMKLMADNYEDDHFKSSHSNQTNHKPSPDQIIQPLLELDQNRSKLKLYIGHLTTLCHDRDPLILRGLTPPASYNLDDDQAAWENELQKMTRGQLQDELEKGERDNAELQEFANAILQQIADHCPDILEQVVNALEESS
B5: TUBB4A (protein, UniProt P04350 1-444, looked up)
Tubulin beta-4A chain: MREIVHLQAGQCGNQIGAKFWEVISDEHGIDPTGTYHGDSDLQLERINVYYNEATGGNYVPRAVLVDLEPGTMDSVRSGPFGQIFRPDNFVFGQSGAGNNWAKGHYTEGAELVDAVLDVVRKEAESCDCLQGFQLTHSLGGGTGSGMGTLLISKIREEFPDRIMNTFSVVPSPKVSDTVVEPYNATLSVHQLVENTDETYCIDNEALYDICFRTLKLTTPTYGDLNHLVSATMSGVTTCLRFPGQLNADLRKLAVNMVPFPRLHFFMPGFAPLTSRGSQQYRALTVPELTQQMFDAKNMMAACDPRHGRYLTVAAVFRGRMSMKEVDEQMLSVQSKNSSYFVEWIPNNVKTAVCDIPPRGLKMAATFIGNSTAIQELFKRISEQFTAMFRRKAFLHWYTGEGMDEMEFTEAESNMNDLVSEYQQYQDATAEEGEFEEEAEEEVA
B6: SRP14 (protein, UniProt P37108 2-136, looked up)
Signal recognition particle …: VLLESEQFLTELTRLFQKCRTSGSVYITLKKYDGRTKPIPKKGTVEGFEPADNKCLLRATDGKKKISTVVSSKEVNKFQMAYSNLLRANMDGLKKRDKKNKTKKTKAAAAAAAAAPAAAATAPTTAATTAATAAQ
B7: BSG (protein, UniProt P35613 22-385, looked up)
Basigin: AAGFVQAPLSQQRWVGGSVELHCEAVGSPVPEIQWWFEGQGPNDTCSQLWDGARLDRVHIHATYHQHAASTISIDTLVEEDTGTYECRASNDPDRNHLTRAPRVKWVRAQAVVLVLEPGTVFTTVEDLGSKILLTCSLNDSATEVTGHRWLKGGVVLKEDALPGQKTEFKVDSDDQWGEYSCVFLPEPMGTANIQLHGPPRVKAVKSSEHINEGETAMLVCKSESVPPVTDWAWYKITDSEDKALMNGSESRFFVSSSQGRSELHIENLNMEADPGQYRCNGTSSKGSDQAIITLRVRSHLAALWPFLGIVAEVLVLVTIIFIYEKRRKPEDVLDDDDAGSAPLKSSGQHQNDKGKNVRQRNSS
B8: BAG2 (protein, UniProt O95816 2-211, looked up)
BAG family molecular …: AQAKINAKANEGRFCRSSSMADRSSRLLESLDQLELRVEALREAATAVEQEKEILLEMIHSIQNSQDMRQISDGEREELNLTANRLMGRTLTVEVSVETIRNPQQQESLKHATRIIDEVVNKFLDDLGNAKSHLMSLYSACSSEVPHGPVDQKFQSIVIGCALEDQKKIKRRLETLLRNIENSDKAIKLLEHSKGAGSKTLQQNAESRFN

One test concerns GFP-14-3-3β and its binding proteins. Nature of the test: GFP-14-3-3β co-IP with LC-MS/MS label-free quantification, untreated versus PP1c-treated. The following applies: PP1 vs untreated; LFQ intensities; 3 replicates each. More on the design: species or system human.
B1: the “Difference (log2), PP1 vs untreated” value is recorded as 0.3965 log2.

Consider B2, for which the “Difference (log2), PP1 vs untreated” value turned out to be 0.376 log2.

As to B3, the “Difference (log2), PP1 vs untreated” value came to 0.3509 log2.

B4: the “Difference (log2), PP1 vs untreated” value was determined as 0.3326 log2.

As for B5, the “Difference (log2), PP1 vs untreated” value came out at 0.4246 log2.

With B6, the “Difference (log2), PP1 vs untreated” value came to 0.3437 log2.

In the case of B7, the “Difference (log2), PP1 vs untreated” value was found to be 0.3522 log2.

The test is the same for the next values; noted with them: log2 difference; pairwise comparison PP1 vs untreated, label-free quantification, 3 replicates each.
As for B8, the “Difference (log2), PP1 vs untreated” value is 2.1096.

Another test relates to GFP-14-3-3β. Briefly: GFP-14-3-3β co-IP with LC-MS/MS, untreated GFP-14-3-3β versus GFP control (14-3-3 interactome). Format: binding, human. The note with it: log2 difference; pairwise comparison untreated vs GFP, label-free quantification, 3 replicates each.
B8: the “Difference (log2), untreated vs GFP” value is -1.564.

Staying with this test, now noted: untreated vs GFP; LFQ intensities; 3 replicates each.
Turning to B1, the “Difference (log2), untreated vs GFP” value amounted to 0.9482 log2.

Turning to B2, the “Difference (log2), untreated vs GFP” value is recorded as -0.5076 log2.

For B3, the “Difference (log2), untreated vs GFP” value is reported as 1.895 log2.

Regarding B4, the “Difference (log2), untreated vs GFP” value is 2.543 log2.

B5: the “Difference (log2), untreated vs GFP” value is given as -1.261 log2.

As to B6, the “Difference (log2), untreated vs GFP” value was 1.473 log2.

Consider B7, for which the “Difference (log2), untreated vs GFP” value is 0.07198 log2.
